Source: publication doi:10.1101/2022.12.21.521430 (bioRxiv, 2022)

Molecular target: Gallus gallus TRPV4 isolated ankyrin repeat domain (residues 135-382) (Gallus gallus, UniProt A0A1D5PXA5 135-382)
Experiment: cross-linking

Gallus gallus TRPV4 isolated ankyrin repeat domain (residues 135-382), sequence (A0A1D5PXA5 135-382): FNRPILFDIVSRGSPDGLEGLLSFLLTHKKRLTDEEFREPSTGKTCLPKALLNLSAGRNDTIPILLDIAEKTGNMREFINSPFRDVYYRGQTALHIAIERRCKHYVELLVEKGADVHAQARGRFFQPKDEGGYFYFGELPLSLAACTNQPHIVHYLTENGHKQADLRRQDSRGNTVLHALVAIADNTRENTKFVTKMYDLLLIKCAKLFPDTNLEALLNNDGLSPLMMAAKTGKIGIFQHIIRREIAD

B1: Gallus gallus TRPV4 isolated intrinsically disordered region (residues 2-134) (domain or fragment, UniProt A0A1D5PXA5 2-134, looked up)
chain: ADPEDPRDAGDVLGDDSFPLSSLANLFEVEDTPSPAEPSRGPPGAVDGKQNLRMKFHGAFRKGPPKPMELLESTIYESSVVPAPKKAPMDSLFDYGTYRQHPSENKRWRRRVVEKPVAGTKGPAPNPPPILKV
binding result: binds
